According to US20240043537A1 (MacroGenics, published 2024):
Positions count from the first letter of the chain named.

B1: CD123-WT (bispecific antibody)
chain 1: DFVMTQSPDSLAVSLGERVTMSCKSSQSLLNSGNQKNYLTWYQQKPGQPPKLLIYWASTRESGVPDRFSGSGSGTDFTLTISSLQAEDVAVYYCQNDYSYPYTFGQGTKLEIKGGGSGGGGEVQLVESGGGLVQPGGSLRLSCAASGFTFSTYAMNWVRQAPGKGLEWVGRIRSKYNNYATYYADSVKDRFTISRDDSKNSLYLQMNSLKTEDTAVYYCVRHGNFGNSYVSWFAYWGQGTLVTVSSGGCGGGEVAALEKEVAALEKEVAALEKEVAALEKGGGDKTHTCPPCPAPEAAGGPSVFLFPPKPKDTLMISRTPEVTCVVVDVSHEDPEVKFNWYVDGVEVHNAKTKPREEQYNSTYRVVSVLTVLHQDWLNGKEYKCKVSNKALPAPIEKTISKAKGQPREPQVYTLPPSREEMTKNQVSLWCLVKGFYPSDIAVEWESNGQPENNYKTTPPVLDSDGSFFLYSKLTVDKSRWQQGNVFSCSVMHEALHNHYTQKSLSLSPGK
chain 2: QAVVTQEPSLTVSPGGTVTLTCRSSTGAVTTSNYANWVQQKPGQAPRGLIGGTNKRAPWTPARFSGSLLGGKAALTITGAQAEDEADYYCALWYSNLWVFGGGTKLTVLGGGGSGGGGEVQLVQSGAELKKPGASVKVSCKASGYTFTDYYMKWVRQAPGQGLEWIGDIIPSNGATFYNQKFKGRVTITVDKSTSTAYMELSSLRSEDTAVYYCARSHLLRASWFAYWGQGTLVTVSSGGCGGGKVAALKEKVAALKEKVAALKEKVAALKE
chain 3: not shown
notes: Three-chain diabody with Fc; also called CD123 x CD3 mAb 1 DART-B-type diabody
B2: CD123-M17 (bispecific antibody)
chain 1: B1 chain 1 with Y153T
chain 2: B1 chain 2
chain 3: not shown
notes: Three-chain diabody with Fc; also called CD123 x CD3 mAb 1 M17 DART-B-type diabody
B3: CD123-M19 (bispecific antibody)
chain 1: B1 chain 1 with G223K, F225I
chain 2: B1 chain 2
chain 3: not shown
notes: Three-chain diabody with Fc; also called CD123 x CD3 mAb 1 M19 DART-B-type diabody
B4: CD123-M13 (bispecific antibody)
chain 1: B1 chain 1 with Y235E
chain 2: B1 chain 2
chain 3: not shown
notes: Three-chain diabody with Fc; also called CD123 x CD3 mAb 1 M13 DART-B-type diabody
B5: CD123-M18 (bispecific antibody)
chain 1: B1 chain 1 with A154G
chain 2: B1 chain 2
chain 3: not shown
notes: Three-chain diabody with Fc; also called CD123 x CD3 mAb 1 M18 DART-B-type diabody
B6: CD123-M2 (bispecific antibody)
chain 1: B1 chain 1 with G223K, S231T
chain 2: B1 chain 2
chain 3: not shown
notes: Three-chain diabody with Fc; also called CD123 x CD3 mAb 1 M2 DART-B-type diabody
B7: CD123-M1 (bispecific antibody)
chain 1: B1 chain 1 with S231T
chain 2: B1 chain 2
chain 3: not shown
notes: Three-chain diabody with Fc; also called CD123 x CD3 mAb 1 M1 DART-B-type diabody

Tests used:
soluble human CD3 [1] = target: T1, soluble human CD3 (human, UniProt P07766 23-126); test: SPR (BIAcore), diabody over immobilized soluble human CD3, 1:1 fit
T1 sequence (P07766 23-126): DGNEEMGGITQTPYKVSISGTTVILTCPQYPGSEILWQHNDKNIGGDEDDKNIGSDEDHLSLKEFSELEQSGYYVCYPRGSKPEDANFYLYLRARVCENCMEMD
Description: (§1) The ability of the CD123-binding diabodies: CD123-WT, CD123-M1, CD123-M2 and CD123-M18 to bind to human CD3 and CD123 was also evaluated using BIAcore®. […] Table 14 presents the calculated kₐ, kd and KD from these studies.

CD8 on CD8+ T-cells = target: T2, CD8 on CD8+ T-cells (UniProt P01732 22-235; P10966 22-210); test: flow cytometry on CD8+ T-cells, MFI (geo mean) against concentration (nM); CD123-WT is the diabody comparator without a CD8-Binding Domain
T2 construct: whole, on cells; also called CD8 expressing CD8+ T-cells
T2 sequence (P01732 22-235, chain 1 of 2): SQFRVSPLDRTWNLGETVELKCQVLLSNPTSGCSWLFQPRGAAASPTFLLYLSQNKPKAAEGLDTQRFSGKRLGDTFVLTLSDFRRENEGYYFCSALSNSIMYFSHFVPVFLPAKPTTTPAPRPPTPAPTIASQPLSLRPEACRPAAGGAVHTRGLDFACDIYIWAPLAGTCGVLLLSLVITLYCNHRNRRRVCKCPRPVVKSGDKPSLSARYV
T2 sequence (P10966 22-210, chain 2 of 2): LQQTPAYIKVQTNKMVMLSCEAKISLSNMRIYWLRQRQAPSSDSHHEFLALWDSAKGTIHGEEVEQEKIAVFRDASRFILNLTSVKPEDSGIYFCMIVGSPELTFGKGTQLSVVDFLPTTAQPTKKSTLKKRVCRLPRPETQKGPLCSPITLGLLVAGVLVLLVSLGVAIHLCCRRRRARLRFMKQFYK

soluble human CD3 [2] = target: T1, soluble human CD3; test: SPR (BIAcore), diabody 6.25-400 nM over immobilized human CD3, 1:1 Langmuir fit
Description: (§2) In additional studies the ability of CD123-binding diabodies: CD123-WT, CD123-M13, CD123-M17 and CD123-M19 to bind to human CD3 and cynomolgus CD3 was also evaluated using BIAcore®. […] Table 15B presents the calculated kₐ, kd and KD.

[3] = target: T3, soluble human CD123, His-tagged (human, UniProt P26951 19-305); test: SPR (BIAcore), diabody over His-tagged CD123 captured on anti-PentaHis, 1:1 fit
T3 construct: Captured on an anti-PentaHis surface; also called soluble CD123; not shown: His tag
T3 sequence (looked up): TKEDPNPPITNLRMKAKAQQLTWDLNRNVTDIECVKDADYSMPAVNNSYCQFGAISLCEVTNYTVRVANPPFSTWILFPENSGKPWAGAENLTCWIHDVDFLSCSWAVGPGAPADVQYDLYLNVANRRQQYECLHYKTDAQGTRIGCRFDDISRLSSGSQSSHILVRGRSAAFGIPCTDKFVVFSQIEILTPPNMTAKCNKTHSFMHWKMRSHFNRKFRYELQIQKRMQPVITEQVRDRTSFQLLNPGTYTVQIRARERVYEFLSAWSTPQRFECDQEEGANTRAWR
Description: as §1

cyno CD3 = cyno CD3 (cynomolgus, UniProt Q95LI5 22-117); test: SPR (BIAcore), diabody 6.25-400 nM over immobilized cyno CD3, 1:1 Langmuir fit
Chain of cyno CD3 (Q95LI5 22-117): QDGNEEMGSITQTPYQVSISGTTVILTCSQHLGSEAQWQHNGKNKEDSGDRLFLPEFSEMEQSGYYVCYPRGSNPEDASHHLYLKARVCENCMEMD
Description: as §2

CD123 on MOLM-13 cells = target: T4, CD123 on MOLM-13 cells (UniProt P26951 19-378, limits assumed); test: Flow cytometry on MOLM-13 cells; detection with biotinylated anti-E/K-coil antibody and streptavidin-PE
T4 construct: whole, on cells; also called CD123-expressing MOLM-13 cells
Description: FIG. 9A-9B show the ability of DART-B-type diabodies to bind to Disease Antigens. […] Binding was detected using biotinylated antibody specific for the diabodies' E/K coils and streptavidin-phycoerythrin (PE).
The ability of such diabodies to bind to their respective Disease Antigen (i.e., CD123 or 5T4) on the surface of MOLM-13 leukemia (CD123) or A-498 kidney carcinoma (5T4) target cancer cells was assessed using FACS. Briefly, cells were incubated with the diabody molecules (in FACS buffer containing 10% human AB serum) in microtiter plates. The cells were washed and incubated with biotin-conjugated mouse anti-EK-coil antibody that recognizes the E-coil/K-coil (EK) Heterodimer-Promoting Domain of the diabodies mixed with streptavidin-phycoerythrin.

Binder	Kd (soluble human CD3 [1]) [nM]	binding result (CD8 on CD8+ T-cells)	Kd (soluble human CD3 [2]) [nM]	Kd [3] [nM]	Kd (cyno CD3) [nM]	EC50 (read off the curve) (CD123 on MOLM-13 cells) [nM]
B1	67	no binding (tested: 100 nM)	52	2	39	
B2			290		329	
B3			218		227	
B4			458		580	
B5	593			2.3		
B6	108			1.1		
B7	842			1.2		~2
